Measured values as given in PMC12823590.

Molecular target: recombinant OsLIKE1-KD from E. coli (GST-OsLIKE1-KD and OsLIKE1-KD-His) (rice)
Test: native gel or EMSA

recombinant OsLIKE1-KD from E. coli (GST-OsLIKE1-KD and OsLIKE1-KD-His) (domain or fragment)
stoichiometry N: 2
